For test [1], the target named is L6 antigen (human) (UniProt P30408). Briefly: inhibition of the binding of FITC-labelled mouse L6 to 3347 cells, flow cytometry; 50% inhibition; run with the pooled chimeric L6. For orientation: Flow cytometry measures light scatter and fluorescence of single cells or particles in a stream.
Test [2] has the same target. In words: inhibition of the binding of FITC-labelled mouse L6 to 3347 cells, flow cytometry; 50% inhibition; run with the chimeric L6 from ascites.
Test [3] has the same target. In words: inhibition of the binding of FITC-labelled mouse L6 to 3347 cells, flow cytometry; 50% inhibition.
Test [4] shares this target. Briefly: cell-based or functional assay.

By IC50 is commonly meant the concentration that inhibits the measured activity by half. Read a high IC50 as a need for much substance.

UniProt P30408, sequence (P30408 whole entry): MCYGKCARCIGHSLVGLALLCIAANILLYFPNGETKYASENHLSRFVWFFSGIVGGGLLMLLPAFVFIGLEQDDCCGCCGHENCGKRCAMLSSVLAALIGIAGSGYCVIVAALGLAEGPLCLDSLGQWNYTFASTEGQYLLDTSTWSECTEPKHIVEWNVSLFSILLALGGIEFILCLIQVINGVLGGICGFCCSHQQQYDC

Turning to L6 monoclonal antibody (mouse, IgG2a), the IC50 in test [1] is 2 µg/mL; in test [2], 2.7 µg/mL.
In test [3], “chimeric L6 antibody (from UniProt P01857 1-330)” registered an IC50 of 3.4 µg/mL. The substance also returned a tumor killing activity (ADCC or CDC) in test [4] of 0.01 µg/mL.
